One assay deals with T1, Met Enkephalin (Homo sapiens, UniProt P01210).
T1 construct: composed of two pentapeptides Tyr-Gly-Gly-Phe-LeuOH and Tyr-Gly-Gly-Phe-MetOH; purchased Bachem, Inc
Put plainly: Color screening assay of bead-bound receptor libraries with Disperse Red-labelled substrate. The note with it: Table 5, label = AA1-AA5; for Kd: read-out: KD-MAX; for BOUND: percentage of library beads bound. The assay is classed as binding. The protocol:
(§1) The synthetic receptor library is then assayed to find those members of the library which have the desired interaction with the labeled substrate. In the case where the desired interaction is binding to the substrate, the synthetic receptor library is mixed with a solution of the labeled substrate and those library members that bind to the labeled substrate are selected. This procedure is particularly simple when the synthetic receptor library members are bound to a solid support as shown in Scheme 2. In that case, solid support particles having receptors which bind the labeled substrate accumulate color or fluorescence or radioactivity (depending on the nature of the label used). Depending on the concentration of the labeled substrate used, the assay can be adjusted to detect binding of any desired strength: for example, if the amount of labeled substrate in the presence of the receptor library is adjusted to give a 100 μM concentration of free (unbound) labeled substrate, then assay will only detect template-substrate binding with association constants (k) of (100 μM)^−1 or greater.
(§2) A color assay method was developed for screening receptor library beads. The color dye used is Disperse Red 1 (available from Aldrich Inc.), a neutral diazo dye whose λmax is at 502 nm. Red color in various organic solvents is visible at concentration as low as 100 μM.
(§3) After receptor beads are treated with a substrate which has a color dye attached on it, the bead binding the substrate is stained and can be easily identified in a background of many colorless beads. The stained bead is the removed from the library by a microsyringe, and subjected to decode to identify its structure. The decoding process involves three operations: a) photolysis of the beads, b) silylation of liberated alcohols, c) injection into GC-EC machine. Once identified, the receptor is then resynthesized on large quantities of beads for confirmatory binding studies. […] From this spectrum, the structure of the receptor is identified as C3—OGLY-leu-phe-Ac, C7—OGLY-ala-Lys-Ac.
(§4) Some additional binding studies for Peptidosteroidal receptors with beta-Casomorphinamide and Des-Tyr Leu Enkahphalin, are shown in the following table 5 and are compared to the Leu Enkaphalin and Met Enkaphalin. [drawing 47]

A further assay has as its target T2, Leu Enkephalin (Homo sapiens, UniProt P01210).
T2 construct: composed of two pentapeptides Tyr-Gly-Gly-Phe-LeuOH and Tyr-Gly-Gly-Phe-MetOH; purchased Bachem, Inc
The description is as above. Type of assay: binding. The following applies: Table 5, label = AA1-AA5. The protocol:
as §1, §2, §3, §4

For orientation: Kd means the concentration at which binding is half-saturated. Consider “GLY-PHE-PRO-PRO-LEU (GFPPL; printed: GLY-PHE-PRO-PRO-LEU)”, for which, in the assay with Met Enkephalin, the Kd was determined as 85 µM and the BOUND stood at 0.5%.
The corresponding values for “PRO-THR-LYS-PHE-ALA (PTKFA; printed: PRO-THR-LYS-PHE-ALA)” are 75 µM and 0.8%.
In the case of “GLY-ASP-PRO-PRO-LEU (GDPPL; printed: GLY-ASP-PRO-PRO-LEU)”, the Kd with Leu Enkephalin (read-out: KD-MAX) is 81 µM. Besides, in the assay with Leu Enkephalin (percentage of library beads bound), the BOUND stood at 0.7%.

The values above are taken from patent publication US6797522B1, “Synthetic receptors” (The Trustees of Columbia University in the City of New York, priority 1996, dated 2004).
